Results taken from publication PMC2896254 (Biopolymers, 2009).
Where two headings read alike, the source gives them in different places. The star is where a group is joined. MBP = 4-(maleimido)benzophenone, alkylating the Cys, O=C(c1ccccc1)c1ccc(N2C(=O)CC(*)C2=O)cc1; Biotin = O=C1N[C@H]2[C@H](CS[C@H]2CCCCC(=O)*)N1

B1: BioPhoAC10 (peptide)
peptide: Biotin-MKQKKKLALCLLLLLLTPVTKA-NH2
SMILES: CSCC[C@H](NC(=O)CCCC[C@@H]1SC[C@@H]2NC(=O)N[C@@H]21)C(=O)N[C@@H](CCCCN)C(=O)N[C@@H](CCC(N)=O)C(=O)N[C@@H](CCCCN)C(=O)N[C@@H](CCCCN)C(=O)N[C@@H](CCCCN)C(=O)N[C@@H](CC(C)C)C(=O)N[C@@H](C)C(=O)N[C@@H](CC(C)C)C(=O)N[C@@H](CS)C(=O)N[C@@H](CC(C)C)C(=O)N[C@@H](CC(C)C)C(=O)N[C@@H](CC(C)C)C(=O)N[C@@H](CC(C)C)C(=O)N[C@@H](CC(C)C)C(=O)N[C@@H](CC(C)C)C(=O)N[C@H](C(=O)N1CCC[C@H]1C(=O)N[C@H](C(=O)N[C@H](C(=O)N[C@@H](CCCCN)C(=O)N[C@@H](C)C(N)=O)[C@@H](C)O)C(C)C)[C@@H](C)O
B2: BioPhoAC11 (peptide)
peptide: Biotin-MKQKKKLALLCLLLLLTPVTKA-NH2
SMILES: CSCC[C@H](NC(=O)CCCC[C@@H]1SC[C@@H]2NC(=O)N[C@@H]21)C(=O)N[C@@H](CCCCN)C(=O)N[C@@H](CCC(N)=O)C(=O)N[C@@H](CCCCN)C(=O)N[C@@H](CCCCN)C(=O)N[C@@H](CCCCN)C(=O)N[C@@H](CC(C)C)C(=O)N[C@@H](C)C(=O)N[C@@H](CC(C)C)C(=O)N[C@@H](CC(C)C)C(=O)N[C@@H](CS)C(=O)N[C@@H](CC(C)C)C(=O)N[C@@H](CC(C)C)C(=O)N[C@@H](CC(C)C)C(=O)N[C@@H](CC(C)C)C(=O)N[C@@H](CC(C)C)C(=O)N[C@H](C(=O)N1CCC[C@H]1C(=O)N[C@H](C(=O)N[C@H](C(=O)N[C@@H](CCCCN)C(=O)N[C@@H](C)C(N)=O)[C@@H](C)O)C(C)C)[C@@H](C)O
B3: BioPhoAC11-BP (peptide)
peptide: Biotin-MKQKKKLALLC(MBP)LLLLLTPVTKA-NH2
SMILES: CSCC[C@H](NC(=O)CCCC[C@@H]1SC[C@@H]2NC(=O)N[C@@H]21)C(=O)N[C@@H](CCCCN)C(=O)N[C@@H](CCC(N)=O)C(=O)N[C@@H](CCCCN)C(=O)N[C@@H](CCCCN)C(=O)N[C@@H](CCCCN)C(=O)N[C@@H](CC(C)C)C(=O)N[C@@H](C)C(=O)N[C@@H](CC(C)C)C(=O)N[C@@H](CC(C)C)C(=O)N[C@@H](CSC1CC(=O)N(c2ccc(C(=O)c3ccccc3)cc2)C1=O)C(=O)N[C@@H](CC(C)C)C(=O)N[C@@H](CC(C)C)C(=O)N[C@@H](CC(C)C)C(=O)N[C@@H](CC(C)C)C(=O)N[C@@H](CC(C)C)C(=O)N[C@H](C(=O)N1CCC[C@H]1C(=O)N[C@H](C(=O)N[C@H](C(=O)N[C@@H](CCCCN)C(=O)N[C@@H](C)C(N)=O)[C@@H](C)O)C(C)C)[C@@H](C)O
B4: BioPhoAC12 (peptide)
peptide: Biotin-MKQKKKLALLLCLLLLTPVTKA-NH2
SMILES: CSCC[C@H](NC(=O)CCCC[C@@H]1SC[C@@H]2NC(=O)N[C@@H]21)C(=O)N[C@@H](CCCCN)C(=O)N[C@@H](CCC(N)=O)C(=O)N[C@@H](CCCCN)C(=O)N[C@@H](CCCCN)C(=O)N[C@@H](CCCCN)C(=O)N[C@@H](CC(C)C)C(=O)N[C@@H](C)C(=O)N[C@@H](CC(C)C)C(=O)N[C@@H](CC(C)C)C(=O)N[C@@H](CC(C)C)C(=O)N[C@@H](CS)C(=O)N[C@@H](CC(C)C)C(=O)N[C@@H](CC(C)C)C(=O)N[C@@H](CC(C)C)C(=O)N[C@@H](CC(C)C)C(=O)N[C@H](C(=O)N1CCC[C@H]1C(=O)N[C@H](C(=O)N[C@H](C(=O)N[C@@H](CCCCN)C(=O)N[C@@H](C)C(N)=O)[C@@H](C)O)C(C)C)[C@@H](C)O
B5: BioPhoAC14 (peptide)
peptide: Biotin-MKQKKKLALLLLLCLLTPVTKA-NH2
SMILES: CSCC[C@H](NC(=O)CCCC[C@@H]1SC[C@@H]2NC(=O)N[C@@H]21)C(=O)N[C@@H](CCCCN)C(=O)N[C@@H](CCC(N)=O)C(=O)N[C@@H](CCCCN)C(=O)N[C@@H](CCCCN)C(=O)N[C@@H](CCCCN)C(=O)N[C@@H](CC(C)C)C(=O)N[C@@H](C)C(=O)N[C@@H](CC(C)C)C(=O)N[C@@H](CC(C)C)C(=O)N[C@@H](CC(C)C)C(=O)N[C@@H](CC(C)C)C(=O)N[C@@H](CC(C)C)C(=O)N[C@@H](CS)C(=O)N[C@@H](CC(C)C)C(=O)N[C@@H](CC(C)C)C(=O)N[C@H](C(=O)N1CCC[C@H]1C(=O)N[C@H](C(=O)N[C@H](C(=O)N[C@@H](CCCCN)C(=O)N[C@@H](C)C(N)=O)[C@@H](C)O)C(C)C)[C@@H](C)O
B6: BioPhoAC13 (peptide)
peptide: Biotin-MKQKKKLALLLLCLLLTPVTKA-NH2
SMILES: CSCC[C@H](NC(=O)CCCC[C@@H]1SC[C@@H]2NC(=O)N[C@@H]21)C(=O)N[C@@H](CCCCN)C(=O)N[C@@H](CCC(N)=O)C(=O)N[C@@H](CCCCN)C(=O)N[C@@H](CCCCN)C(=O)N[C@@H](CCCCN)C(=O)N[C@@H](CC(C)C)C(=O)N[C@@H](C)C(=O)N[C@@H](CC(C)C)C(=O)N[C@@H](CC(C)C)C(=O)N[C@@H](CC(C)C)C(=O)N[C@@H](CC(C)C)C(=O)N[C@@H](CS)C(=O)N[C@@H](CC(C)C)C(=O)N[C@@H](CC(C)C)C(=O)N[C@@H](CC(C)C)C(=O)N[C@H](C(=O)N1CCC[C@H]1C(=O)N[C@H](C(=O)N[C@H](C(=O)N[C@@H](CCCCN)C(=O)N[C@@H](C)C(N)=O)[C@@H](C)O)C(C)C)[C@@H](C)O

Key:
Assay in all cases: pull-down
[1] = molecular target: T1, Wild-type full-length Ffh carrying an N-terminal deca-His tag (E. coli, UniProt P0AGD7 1-453)
T1 sequence (looked up): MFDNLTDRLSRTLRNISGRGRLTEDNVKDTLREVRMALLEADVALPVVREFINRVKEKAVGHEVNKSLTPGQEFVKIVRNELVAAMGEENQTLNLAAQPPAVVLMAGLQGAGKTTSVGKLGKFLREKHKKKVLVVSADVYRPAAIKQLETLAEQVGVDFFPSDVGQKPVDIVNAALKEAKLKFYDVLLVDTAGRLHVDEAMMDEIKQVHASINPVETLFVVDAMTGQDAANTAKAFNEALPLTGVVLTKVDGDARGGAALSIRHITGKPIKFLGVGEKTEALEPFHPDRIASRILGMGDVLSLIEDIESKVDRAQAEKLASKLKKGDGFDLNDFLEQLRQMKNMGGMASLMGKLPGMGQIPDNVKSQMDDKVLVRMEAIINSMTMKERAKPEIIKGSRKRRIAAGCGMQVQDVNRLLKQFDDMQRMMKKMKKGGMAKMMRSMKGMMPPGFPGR

[2] = molecular target: T2, His-tagged NG domain of Ffh (residues M1 to V300) (E. coli, UniProt P0AGD7 1-300)
T2 sequence (looked up): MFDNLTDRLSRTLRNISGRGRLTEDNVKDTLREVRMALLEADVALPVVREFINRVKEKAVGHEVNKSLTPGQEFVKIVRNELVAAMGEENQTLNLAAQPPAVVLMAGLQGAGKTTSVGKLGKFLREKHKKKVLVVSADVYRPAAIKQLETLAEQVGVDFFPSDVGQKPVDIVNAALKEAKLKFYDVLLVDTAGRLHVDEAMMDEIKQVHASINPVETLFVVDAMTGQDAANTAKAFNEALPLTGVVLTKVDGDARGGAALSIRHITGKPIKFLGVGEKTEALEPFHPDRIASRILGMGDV

[3] = molecular target: T3, His-tagged M domain of Ffh (M297 to R453) (E. coli, UniProt P0AGD7 297-453)
T3 sequence (looked up): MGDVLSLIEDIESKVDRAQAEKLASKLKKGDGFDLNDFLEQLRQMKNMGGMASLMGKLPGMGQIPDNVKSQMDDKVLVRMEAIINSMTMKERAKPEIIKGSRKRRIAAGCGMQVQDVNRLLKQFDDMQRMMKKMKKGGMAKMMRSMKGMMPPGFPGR

[4] = molecular target: T1, Wild-type full-length Ffh carrying an …; remark: listed apart in the source

| Binder | binding result [1] | binding result [4] | other results |
| --- | --- | --- | --- |
| B1 | binds |  |  |
| B2 | binds |  | binding result [2]: binds; binding result [3]: binds |
| B3 | binds |  |  |
| B4 |  | binds |  |
| B5 |  | binds |  |
| B6 |  | binds |  |
